Results published in paper PMC5234120, “Age-related macular degeneration associated polymorphism rs10490924 in ARMS2 results in deficiency of a complement activator” (Journal of Neuroinflammation, 2017).

Tests used:
[1] = target: T1, properdin (human, UniProt P27918 28-469); assay: BLI; BLITZ system; His-tagged ARMS2 loaded on Ni2+ NTA biosensors in PBS with 0.1% gelatin; properdin 70 to 1800 nM; 1:1 model; conditions: both partners purified
T1 construct: properdin (complement factor P), human; the oligomeric state of the purified protein was not measured here; also called purified properdin; source: bought: Complement Technologies (CompTech), purified; bought: TECOmedical GmbH (peptide ELISA); endogenous, normal human serum (NHS)

[2] = target: T1, properdin; assay: ELISA; ARMS2 peptides 1, 2, 3 (each 500 nM) coated on the plate; 2 uM properdin (TECOmedical) in PBS; detected with monoclonal properdin antibody; conditions: both partners purified

T1 sequence (P27918 28-469): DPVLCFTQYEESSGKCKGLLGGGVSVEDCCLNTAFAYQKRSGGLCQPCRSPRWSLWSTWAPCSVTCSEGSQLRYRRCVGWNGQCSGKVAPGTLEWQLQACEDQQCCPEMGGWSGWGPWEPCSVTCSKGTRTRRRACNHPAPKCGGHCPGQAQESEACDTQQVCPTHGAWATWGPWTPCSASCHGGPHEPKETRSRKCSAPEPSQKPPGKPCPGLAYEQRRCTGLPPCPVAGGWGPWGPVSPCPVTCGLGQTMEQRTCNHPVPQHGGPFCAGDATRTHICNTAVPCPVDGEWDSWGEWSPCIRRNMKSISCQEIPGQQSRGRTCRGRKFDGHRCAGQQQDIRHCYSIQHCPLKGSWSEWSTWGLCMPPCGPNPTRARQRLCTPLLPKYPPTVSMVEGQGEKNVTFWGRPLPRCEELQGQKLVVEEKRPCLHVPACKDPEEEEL

B1: recombinant ARMS2 (age-related maculopathy susceptibility 2) (natural protein, human, UniProt P0C7Q2 1-107, looked up)
chain: MLRLYPGPMVTEAEGKGGPEMASLSSSVVPVSFISTLRESVLDPGVGGEGASDKQRSKLSLSHSMIPAAKIHTELCLPAFFSPAGTQRRFQQPQHHLTLSIIHTAAR
notes: ARMS2, human, codon usage optimized full length cDNA; Glycosylated in P. pastoris (17 and 15 kDa bands); also called His-tagged ARMS2; rARMS2
- Kd [1]: 500 nM

B2: ARMS2 peptide 3 (amino acids 71 to 107) (peptide)
peptide: IHTELCLPAFFSPAGTQRRFQQPQHHLTLSIIHTAAR
notes: ARMS2, human, amino acids 71 to 107; also called C-terminal peptide 3 of ARMS2; source: peptide generated by Jerini Peptide Biotechnologies
- binding result [2]: binds
